Substrate in the data set: CCC(CSC[C@@H](NC(=O)CC[C@H](N)C(=O)O)C(=O)NCC(=O)O)C(=O)c1ccc(OCC(=O)O)c(Cl)c1Cl
The data set is described as follows: TP_TRANSPORTER: uptake in membrane vesicles from S1(MRP) cells. The data set is classed as functional, cell membranes, Membrane vesicle.

For 1 protein, Km results are on record in ChEMBL document CHEMBL2074303, “Transport of the glutathione conjugate of ethacrynic acid by the human multidrug resistance protein MRP” (FEBS Lett, 1996).

B1: Multidrug resistance-associated protein 1 (Homo sapiens) (protein)
chain: MALRGFCSADGSDPLWDWNVTWNTSNPDFTKCFQNTVLVWVPCFYLWACFPFYFLYLSRHDRGYIQMTPLNKTKTALGFLLWIVCWADLFYSFWERSRGIFLAPVFLVSPTLLGITMLLATFLIQLERRKGVQSSGIMLTFWLVALVCALAILRSKIMTALKEDAQVDLFRDITFYVYFSLLLIQLVLSCFSDRSPLFSETIHDPNPCPESSASFLSRITFWWITGLIVRGYRQPLEGSDLWSLNKEDTSEQVVPVLVKNWKKECAKTRKQPVKVVYSSKDPAQPKESSKVDANEEVEALIVKSPQKEWNPSLFKVLYKTFGPYFLMSFFFKAIHDLMMFSGPQILKLLIKFVNDTKAPDWQGYFYTVLLFVTACLQTLVLHQYFHICFVSGMRIKTAVIGAVYRKALVITNSARKSSTVGEIVNLMSVDAQRFMDLATYINMIWSAPLQVILALYLLWLNLGPSVLAGVAVMVLMVPVNAVMAMKTKTYQVAHMKSKDNRIKLMNEILNGIKVLKLYAWELAFKDKVLAIRQEELKVLKKSAYLSAVGTFTWVCTPFLVALCTFAVYVTIDENNILDAQTAFVSLALFNILRFPLNILPMVISSIVQASVSLKRLRIFLSHEELEPDSIERRPVKDGGGTNSITVRNATFTWARSDPPTLNGITFSIPEGALVAVVGQVGCGKSSLLSALLAEMDKVEGHVAIKGSVAYVPQQAWIQNDSLRENILFGCQLEEPYYRSVIQACALLPDLEILPSGDRTEIGEKGVNLSGGQKQRVSLARAVYSNADIYLFDDPLSAVDAHVGKHIFENVIGPKGMLKNKTRILVTHSMSYLPQVDVIIVMSGGKISEMGSYQELLARDGAFAEFLRTYASTEQEQDAEENGVTGVSGPGKEAKQMENGMLVTDSAGKQLQRQLSSSSSYSGDISRHHNSTAELQKAEAKKEETWKLMEADKAQTGQVKLSVYWDYMKAIGLFISFLSIFLFMCNHVSALASNYWLSLWTDDPIVNGTQEHTKVRLSVYGALGISQGIAVFGYSMAVSIGGILASRCLHVDLLHSILRSPMSFFERTPSGNLVNRFSKELDTVDSMIPEVIKMFMGSLFNVIGACIVILLATPIAAIIIPPLGLIYFFVQRFYVASSRQLKRLESVSRSPVYSHFNETLLGVSVIRAFEEQERFIHQSDLKVDENQKAYYPSIVANRWLAVRLECVGNCIVLFAALFAVISRHSLSAGLVGLSVSYSLQVTTYLNWLVRMSSEMETNIVAVERLKEYSETEKEAPWQIQETAPPSSWPQVGRVEFRNYCLRYREDLDFVLRHINVTINGGEKVGIVGRTGAGKSSLTLGLFRINESAEGEIIIDGINIAKIGLHDLRFKITIIPQDPVLFSGSLRMNLDPFSQYSDEEVWTSLELAHLKDFVSALPDKLDHECAEGGENLSVGQRQLVCLARALLRKTKILVLDEATAAVDLETDDLIQSTIRTQFEDCTVLTIAHRLNTIMDYTRVIVLDKGEIQEYGAPSDLLQQRGLFYSMAKDAGLV
With B1, the Km is 5 µM.
